This note sets out measurements from US20190345535.

Values joined by “and” are separate entries in the source; they are usually repeats but may differ in a detail not shown here. Equal values may be shown once.

Data set [1] deals with GFP^2-Pflu-H1-RLuc2 fusion protein.
The subject of data set [2] is GFP^2-Pflu-H2-RLuc2 fusion protein.
The subject of data set [3] is GFP^2-Pflu-H3-RLuc2 fusion protein.
Data set [4] deals with GFP^2-Pflu-H4-RLuc2 fusion protein.
Data set [5] concerns GFP^2-Pflu1-RLuc2 fusion protein (Pflu sensor 1).
Data set [6] deals with GFP^2-Pflu2-RLuc2 fusion protein (Pflu sensor 2).
Data set [7] relates to GFP^2-Pflu3-RLuc2 fusion protein (Pflu sensor 3).
For data set [8], the system named is GFP^2-plas1-RLuc2 fusion protein (BRET^2 plasmin sensor).

Regarding “crude bacterial protease from Pseudomonas fluorescens strain 65”, in data set [1], the “BRET^2 response to 1 nM bacterial protease in buffer, 10 minutes” value (shortened to “BRET^2 response … 10 minutes”) turned out to be 49.5%; the Bacterial protease response (%), BRET^2, 1 nM in UHT milk came out at 6.7%; the Selectivity (ratio of Bacterial protease response to Plasmin response), UHT milk is 1.3. Further, in data set [2], the “BRET^2 response … 10 minutes” value was 31.9%; the Bacterial protease response (%), BRET^2, 1 nM in UHT milk came out at 6.6%; the Selectivity (ratio of Bacterial protease response to Plasmin response), UHT milk is 0.8. Moreover, in data set [3], the “BRET^2 response … 10 minutes” value is reported as 89.7%; the Bacterial protease response (%), BRET^2, 1 nM in UHT milk amounted to 36.3%; the “More responsive to 1 nM bacterial protease compared to Pflu H1 sensor, buffer” value is 82%; the “More responsive to 1 nM bacterial protease compared to Pflu H2 sensor, buffer” value is 182%. In addition, in data set [3], the “More responsive to 1 nM bacterial protease compared to Pflu H4 sensor, buffer” value is given as 39%; the Selectivity (ratio of Bacterial protease response to Plasmin response), UHT milk was 40.3; the Selectivity for bacterial protease over bovine plasmin, protease concentration by BSA standard turned out to be 32 fold; the Selectivity for bacterial protease over bovine plasmin, raw milk is 376 fold. Also, in data set [4], the “BRET^2 response … 10 minutes” value is recorded as 64.5%; the Bacterial protease response (%), BRET^2, 1 nM in UHT milk is 17.1%; the Selectivity (ratio of Bacterial protease response to Plasmin response), UHT milk came to 2.7. Besides, in data set [5], the “Reduction in the BRET ratio, 1 nM protease, UHT milk, 10 minutes” value was 80.6% reduction in the BRET ratio with strain 65 bacterial proteases; the “Reduction in the BRET ratio, 1 nM protease, buffer, 10 minutes” value was 95% reduction in the BRET ratio; the Selectivity for bacterial protease over bovine plasmin worked out at 238 fold; the Selectivity for bacterial protease over bovine plasmin, protease concentration by BSA standard was found to be 20 fold. In addition, in data set [5], the Selectivity for bacterial protease over human plasmin turned out to be 174 fold; the Selectivity for bacterial protease over human plasmin, protease concentration by BSA standard amounted to 15 fold; the “Sensitivity to bacterial proteases relative to the plasmin sensor, raw milk, 10 minute incubation” value was determined as 10× more sensitive. In data set [6], the Linear range (10%-90% BRET^2 response), 50% full fat UHT milk, protease concentration by BSA standard was 6.7 nM and 13.8 nM; the Selectivity for bacterial protease over human plasmin stood at 353 fold; the Selectivity for bacterial protease over human plasmin, protease concentration by BSA standard was 30 fold. Moreover, in data set [7], the Selectivity for bacterial protease over human plasmin was determined as 563 fold and the Selectivity for bacterial protease over human plasmin, protease concentration by BSA standard amounted to 48.5 fold. Besides, in data set [8], the Linear range (10%-90% BRET^2 response), 50% full fat UHT milk is 10 nM and 90 nM; the Linear range (10%-90% BRET^2 response), 50% full fat UHT milk, protease concentration by BSA standard is 116 nM and 1040 nM; the Selectivity for bacterial protease over bovine plasmin was 2 fold; the Selectivity for bacterial protease over bovine plasmin, protease concentration by BSA standard stood at 0.2 fold. In data set [8], this substance gave a Selectivity for bacterial protease over human plasmin of 0.1 fold and a Selectivity for bacterial protease over human plasmin, protease concentration by BSA standard of 0.01 fold.

Regarding “crude bacterial protease from Pseudomonas fluorescens strain 117”, in data set [5], the “Reduction in the BRET ratio, 1 nM protease, UHT milk, 10 minutes” value was 71.2% reduction with the bacterial protease from strain 117 and the “Reduction in the BRET ratio, 1 nM protease, buffer, 10 minutes” value is 95% reduction in the BRET ratio.
